PMC5612608 (Contrast Media & Molecular Imaging, 2017)

Assays:
in vivo [1] = experiment: in vivo; parameters: species or system mouse; details: female, NMRI, mouse, in vivo, iv, 45 pmol, total radioactivity
Description: (§1) The animal experiments were planned and performed in accordance with the national legislation on the protection of laboratory animals, and the study plans were approved by the local committee for animal research ethics. Groups of 3-4 mice were used per data point. Biodistribution studies were performed on female immunocompetent NMRI mice (weight: 30 ± 2 g), female Balb/c nu/nu (inoculated 10 million PC-3 cells/mouse 21 days before the experiment, weight 17 ± 2 g), and male inbred immunodeficient NOD-SCID mice (5 million PC-3 cells/mouse, 35 days before the experiment, 31 ± 2 g). […] The injected radioactivity was adjusted to 30 kBq per animal. […] The mice were euthanized at 30 min pi by intraperitoneal injection of Ketalar-Rompun solution (10 mg/mL Ketalar and 1 mg/mL Rompun; 20 μL/g body weight). Blood samples were collected by cardiac puncture. Lung, liver, spleen, pancreas, stomach, small intestines, kidneys, muscle, bone, and the rest of intestines with their content were collected. The organs were weighed and their radioactivity content was measured in a gamma-counter. The data were corrected for background radiation. The organ uptake values were expressed as a percentage of injected dose per gram of tissue (% ID/g), except for the gastrointestinal tract and the remaining carcass, which were calculated as % ID per whole sample.

murine GRPRs = experiment: in vivo; parameters: species or system mouse; details: female NMRI mice, 30 min pi, 45 pmol, coinjected 20 nmol unlabeled peptide
Description: as §1

[2] = Labeling stability: EDTA challenge and PBS, analysed by ITLC; assay type: physicochemical; details: chemical (label) stability, ITLC eluted with citric acid 0.2 M pH 2.0, average ± SD
Description: Radiolabeling with ^57Co was performed using 3.8–10 nmol (aq. 1 nmol/μL) of NOTA-PEG2-RM26 buffered with 80 μL ammonium acetate (0.2 M, pH 5.5). The mixture was incubated with ^57Co cobalt chloride (10–50 MBq) for 30 min at 60°C. For ^55Co labeling, 1.3 nmol of NOTA-PEG2-RM26 buffered with 80 μL ammonium acetate (0.2 M, pH 5.5) was heated by microwave irradiation for 1 min at 850 W in a sealed vial using a conventional microwave oven (Samsung MW82N-B). […] Labeling yield, radiochemical purity, and in vitro stability were analyzed using instant thin-layer chromatography (ITLC) strips (Agilent Technologies) eluted with citric acid (0.2 M, pH 2.0). In this system, free ^57/55Co migrates with the eluent front (Rf = 1.0) and the radiolabeled construct stays on the application point (Rf = 0.0). The system was previously validated by sodium dodecyl sulfate polyacrylamide gel electrophoresis (SDS-PAGE) and radio-HPLC [7, 8].

PC-3 xenografts = experiment: In vivo binding specificity in PC-3 xenografted Balb/c nu/nu mice; parameters: species or system mouse; details: female Balb/c nu/nu mice with subcutaneous PC-3 tumors, 3 h pi, 45 pmol, coinjected 20 nmol
Description: (§2) The animal experiments were planned and performed in accordance with the national legislation on the protection of laboratory animals, and the study plans were approved by the local committee for animal research ethics. Groups of 3-4 mice were used per data point. Biodistribution studies were performed on female immunocompetent NMRI mice (weight: 30 ± 2 g), female Balb/c nu/nu (inoculated 10 million PC-3 cells/mouse 21 days before the experiment, weight 17 ± 2 g), and male inbred immunodeficient NOD-SCID mice (5 million PC-3 cells/mouse, 35 days before the experiment, 31 ± 2 g).
(§3) Tumor targeting specificity and biodistribution over time were studied on PC-3 xenografted female Balb/c nu/nu and male NOD-SCID mice, respectively. […] An additional group of animals was coinjected with an excess of nonlabeled peptide (20 nmol). The mice were sacrificed at 3 h pi by intraperitoneal injection of Ketalar-Rompun solution (10 mg/mL Ketalar and 1 mg/mL Rompun; 20 μL/g body weight). […] The mice were euthanized at 3 and 24 h pi by cervical dislocation. Tumors, blood, and other organs of interest were collected, weighed, and measured on radioactivity content in a gamma-counter. […] The organ uptake values were expressed as a percentage of injected dose per gram of tissue (% ID/g), except for the gastrointestinal tract and the remaining carcass, which were calculated as % ID per whole sample.

PC-3 cells = experiment: Cellular processing (binding and internalization, acid wash) by PC-3 cells; assay type: cell-based, human; details: 1 nM, 37°C, 24 h incubation, 3 dishes
Description: The cells were cultured in RPMI-1640 media supplemented with 10% fetal calf serum, PEST (penicillin 100 IU/mL, streptomycin 100 μg/mL), and 2 mM L-glutamine (all from Biochrom AG, Berlin, Germany). This medium is referred to as complete medium in the text. Trypsin-EDTA (0.05% trypsin, 0.02% EDTA in buffer; Biochrom AG) was used for cell detachment. All in vitro experiments were performed in triplicate. […] At predetermined time points (1, 2, 4, 8, and 24 h after the start of incubation) the medium from 3 dishes was discarded and the cells were washed with ice-cold serum-free medium. The membrane-bound and internalized radioactivity were collected using the acid wash method described earlier.

in vivo [3] = details: male, NOD-SCID, mouse, iv, 16.8 pmol, total radioactivity
Description: as §2, §3

SMILES: CC(C)C[C@H](NC(=O)C[C@H](O)[C@H](CC(C)C)NC(=O)[C@H](Cc1c[nH]cn1)NC(=O)CNC(=O)[C@@H](NC(=O)[C@H](C)NC(=O)[C@H](Cc1c[nH]c2ccccc12)NC(=O)[C@H](CCC(N)=O)NC(=O)[C@@H](Cc1ccccc1)NC(=O)COCCOCCNC(=O)CN1CCN(CC(=O)O)CCN(CC(=O)O)CC1)C(C)C)C(N)=O [^57Co-NOTA-PEG2-RM26]
- tissue uptake at 0.5 h (in vivo [1]; kidney retention): 6 ± 2 %ID/g
- tissue uptake at 0.5 h (in vivo [1]; liver uptake): 0.65 ± 0.05 %ID/g
- Accumulated radioactivity in receptor-positive organs (pancreas, small intestine, stomach) on coinjection of unlabeled peptide (murine GRPRs): significantly lower
- Release in the presence of excess EDTA ([2]; 1000-fold molar excess of EDTA disodium salt, 1 h, room temperature): 0.7 ± 0.2%
- Release in PBS ([2]; PBS, 1 h incubation at room temperature): 0.07 ± 0.11%
- Tumor uptake and uptake in GRPR-expressing organs on coinjection of excess unlabeled peptide (PC-3 xenografts): inhibited
- Internalized fraction of cell-associated radioactivity (PC-3 cells): 12%
- tissue uptake at 3 h (in vivo [3]): 0.05 ± 0.02 %ID/g
